This experiment deals with SARS-CoV-2 core replication-transcription complex (nsp12 polymerase with nsp7 and nsp8), elongating on RNA (SARS-CoV-2) (UniProt P0DTD1). Put plainly: single-molecule magnetic tweezers (RNA synthesis traces).

Here are results for one substance from article PMC13190607.

“SARS-CoV-2 nsp13 helicase (wild type) (from UniProt P0DTD1 5325-5925) (enzyme)” displayed a KA of the first helicase (nsp13.1) binding to the core RTC of 0.22 nM⁻¹ and a KA of the second helicase (nsp13.2) binding to RTC-nsp13.1 of 0.47 nM⁻¹.
